Target: RbpB (BT_1887), recombinant B. thetaiotaomicron RbpB (B. thetaiotaomicron) (UniProt A9IXD6)
Assay: SEC

stoichiometry N: 2
Substance: RbpB (BT_1887), recombinant B. thetaiotaomicron RbpB (from UniProt A9IXD6 1-44) (natural protein)

From article doi:10.1101/2023.12.22.572801
